# Experimental data: patent publication US20190218304A1, “POTENTIATING THE EFFECT OF ATP RELEASE” (INNATE PHARMA, priority 2017, published 2019)
# T1: soluble recombinant human CD39 protein (Homo sapiens, UniProt P49961)
# T1 construct: made in house; host or cells: CHO cells
# T1 sequence (P49961 with tags, fused parts or gaps): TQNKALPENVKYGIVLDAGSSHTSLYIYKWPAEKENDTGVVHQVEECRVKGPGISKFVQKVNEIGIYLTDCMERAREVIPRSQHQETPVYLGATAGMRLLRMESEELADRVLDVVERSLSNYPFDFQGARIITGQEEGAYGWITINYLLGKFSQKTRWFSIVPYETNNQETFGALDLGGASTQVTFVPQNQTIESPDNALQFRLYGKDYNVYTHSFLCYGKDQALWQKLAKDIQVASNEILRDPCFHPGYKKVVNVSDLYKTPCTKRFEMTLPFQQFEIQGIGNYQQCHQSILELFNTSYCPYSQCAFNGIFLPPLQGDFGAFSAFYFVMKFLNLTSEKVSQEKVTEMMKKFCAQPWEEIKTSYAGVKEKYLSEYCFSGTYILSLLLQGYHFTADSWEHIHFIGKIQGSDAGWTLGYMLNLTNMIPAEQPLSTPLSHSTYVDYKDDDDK
# B1: I-399: anti-CD39 antibody, VH SEQ ID NO: 27, VL SEQ ID NO: 28 (antibody, listed as Mus musculus, V domains shown)
# VH: PVQLQQPGAEVVMPGASVKLSCKASGYTFTSFWMNWMRQRPGQGLEWIGEIDPSDFYTNSNQRFKGKATLTVDKSSSTAYMQLSSLTSEDSAVYFCARGDFGWYFDVWGTGTSVTVSS
# VL: EIVLTQSPTTMTSSPGEKITFTCSASSSINSNYLHWYQQKPGFSPKLLIYRTSNLASGVPTRFSGSGSGTSYSLTIGTMEAEDVATYYCQQGSSLPRTFGGGTKLEIK
# Legend:
# [1] = system: CD39 mutants (Table 1) expressed in Hek-293T cells; assay: Epitope mapping: flow cytometry binding to CD39 mutants in Hek-293T cells; design: species or system human
# Procedure: CD39 mutants were generated by PCR. The sequences amplified were run on agarose gel and purified using the Macherey Nagel PCR Clean-Up Gel Extraction kit (reference 740609). The purified PCR products generated for each mutant were then ligated into an expression vector, with the ClonTech InFusion system. The vectors containing the mutated sequences were prepared as Miniprep and sequenced. After sequencing, the vectors containing the mutated sequences were prepared as Midiprep using the Promega PureYield™ Plasmid Midiprep System. HEK293T cells were grown in DMEM medium (Invitrogen), transfected with vectors using Invitrogen's Lipofectamine 2000 and incubated at 37° C. in a […] incubator for 48 hours prior to testing for transgene expression. The targeted amino acid mutations in the table 1 below are shown using numbering of SEQ ID NO: 1.
# In order to define the epitopes of anti-CD39 antibodies, we designed CD39 mutants defined by substitutions of amino acids exposed at the molecular surface over the surface of CD39.
# Mutant 5 contains amino acid substitutions at residues Q96, N99, E143 and R147.
# Mutants were transfected in Hek-293T cells, as shown in the table 1, using numbering of SEQ ID NO: 1. […] Mutant 19 includes substitutions at residues R138, M139 and E142.
# Mutants were transfected in Hek-293T cells, as shown in the table 1, using numbering of SEQ ID NO: 1. […]
# [2] = biological target: T1, soluble recombinant human CD39 protein; assay: Inhibition of the enzymatic activity of soluble CD39 (Cell Titer Glo); assay type: biochemical; settings: result in words
# Procedure: The inhibition by antibodies of the enzymatic activity of soluble CD39 protein produced was evaluated using Cell Titer Glo™ (Promega, reference G7571) that allows assessment of ATP hydrolysis through use of a reagent that generates a luminescent signal proportional to the amount of ATP present. In this way, inhibition of the soluble-CD39-meidatd ATP hydrolysis can be assessed. Briefly, dose ranges of anti-CD39 antibodies from 100 μg/ml to 6×10^−3 μg/ml were incubated with 400 ng/ml of soluble recombinant human CD39 protein having the amino acid sequence described in the Methods section (SEQ ID NO: 39), for 1 h at 37° C. 20 μM ATP was added to the plates for 30 additional minutes at 37° C. before addition of CTG (Cell Titer Glo) reagent. Emitted light was quantified using an Enspire™ luminometer after a short incubation period of 5 min in the dark. Anti-CD39 antibody efficacy was determined by comparing emitted light in presence of antibody with ATP alone (maximal light emission) and ATP together with soluble CD39 protein (minimal light emission).
molecule,measurement,setting,value
B1,binding to cells expressing mutant 11 of CD39,"[1]; mutant 11: N371K, L372K, E375A, K376G, V377A and insertion 377V",loss of binding
same,binding to the other CD39 mutants of Table 1,[1]; remaining mutants of the 20 generated,without loss of binding to any of the other 20 mutants
same,inhibition of the enzymatic (ATPase) activity of soluble CD39 protein,[2],inhibition of soluble CD39
